Assay results from patent US20130122008A1, “Anti-IL 1- ß Antibody Combination Therapy” (NOVARTIS AG, priority 2009, published 2013).
Entries after “also recorded” stand apart in the source; their conditions may differ.

Key:
Assay type in all cases: in vivo, human
[1] = test system: patients with type 2 diabetes mellitus (T2DM); assay: C-peptide (OGTT) in clinical study of ACZ885 in T2DM patients on metformin; conditions: dose escalation, Week 4 post-dose, versus placebo
From the text: In the beta cells of the pancreas, the proinsulin molecule is cleaved to form insulin and C-Peptide. C-Peptide, a polypeptide consisting of 31 amino acids, is stored in the secretory granules of the beta cells and released into circulation in equimolar amounts with insulin. The determination of C-Peptide provides an assessment of endogenous insulin secretory reserves in patients with diabetes mellitus and is considered a more reliable indicator of insulin secretion than insulin itself. The ADVIA Centaur C-Peptide assay is a two-site sandwich immunoassay using direct chemiluminescent technology, which uses constant amounts of two antibodies. The first antibody, in the Lite Reagent, is a monoclonal mouse anti-C-Peptide antibody labeled with acridinium ester. The second antibody, in the Solid Phase, is a monoclonal mouse anti-C-Peptide antibody. Streptavidin in the Solid phase is covalently coupled. A direct relationship exists between the amount of C-Peptide present in the patient sample and the amount of relative light units (RLUs) detected by the system. The method has an inter-assay precision of 1.69-1.81% CV, and an intra-assay precision of 3.7-4.1% (determined by assaying 20 replicate assays of a sample then evaluating the coefficient of variation). Accuracy is evaluated by comparison with College of American Pathologists (CAP) Ligand. […]

[2] = test system: patients with type 2 diabetes mellitus (T2DM); assay: Hemoglobin A1c in clinical dose escalation study of ACZ885 i.v. in T2DM patients on metformin
Procedure: The hemoglobin A1c assay is performed at Covance Central Laboratory Services (CLS) on the FDA-approved Bio-Rad Variant™ analyzer. This analyzer utilizes the principles of ion-exchange high performance liquid chromatography (HPLC) and microcomputer technology. Detection is performed at two wavelengths, 415 nm and 690 nm, to insure a stable baseline. A chromatogram of the changes in the absorbance is plotted versus the retention time. Each chromatogram printout is accompanied by a report identifying each peak detected, plus the relative percent and retention times of each peak. The method has an inter-assay precision of 1.7-2.1% CV, and an intra-assay precision of 0.9-1.1% (determined by assaying 15 replicate assays of a sample then evaluating the coefficient of variation). A multi center, randomized, double blind, placebo-controlled, dose escalation study of the safety, tolerability, pharmacokinetics and pharmacodynamics of ACZ885 administered intravenously to patients with type 2 diabetes mellitus. The aim of the study is to compare the pharmacokinetic and pharmacodynamic effects of five doses (i.v. administration) of ACZ885 with placebo in patients with type 2 diabetes mellitus (T2DM). […] OGTT was administered at Baseline, 4 and 12 wk post-dose. […]

[3] = test system: patients with type 2 diabetes mellitus (T2DM); assay: Glucagon (OGTT) in clinical study of ACZ885 in T2DM patients on metformin; conditions: dose escalation, Week 4 post-dose, versus placebo
From the text: Glucagon is a hormone secreted by the alpha cells of the pancreatic islets of Langerhans. It is secreted in response to hypoglycemia and increases the blood glucose. As serum glucose levels rise in the blood, glucagon is inhibited by a negative feedback mechanism. The Millipore/LINCO Glucagon Radioimmunoassay kit utilized I^125 labeled glucagon and glucagon antiserum to determine the level of glucagon in plasma by the double antibody/PEG technique. The antibody is specific for pancreatic glucagon. A standard curve is set up with increasing concentrations of standard unlabeled antigen and from this curve the amount of antigen in unknown samples can be calculated. The method has an inter-assay precision of 7.3-13.5% CV, and an intra-assay precision of 4.0-6.8% (determined by assaying replicate assays then evaluating the coefficient of variation). Accuracy is evaluated by comparison with College of American Pathologists (CAP) Ligand. A multi center, randomized, double blind, placebo-controlled, dose escalation study of the safety, tolerability, pharmacokinetics and pharmacodynamics of ACZ885 administered intravenously to patients with type 2 diabetes mellitus. The aim of the study is to compare the pharmacokinetic and pharmacodynamic effects of five doses (i.v. administration) of ACZ885 with placebo in patients with type 2 diabetes mellitus (T2DM). […]

B1: ACZ885: anti-IL1β antibody, also referred to as Canakinumab; variable domains shown in SEQ ID NO:1 (VH) and SEQ ID NO:2 (VL) (antibody, V domains shown)
VH: QVQLVESGGGVVQPGRSLRLSCAASGFTFSVYGMNWVRQAPGKGLEWVAIIWYDGDNQYYADSVKGRFTISRDNSKNTLYLQMNGLRAEDTAVYYCARDLRTGPFDYWGQGTLVTVSS
VL: EIVLTQSPDFQSVTPKEKVTITCRASQSIGSSLHWYQQKPDQSPKLLIKYASQSFSGVPSRFSGSGSGTDFTLTINSLEAEDAAAYYCHQSSSLPFTFGPGTKVDIK
modifications: homo sapiens
- OGTT C-peptide AUC0-4 h [1]: Positive trends consistent with dose escalation; also recorded: positive trend at Week 4 post-dose, albeit not statistically significant
- hemoglobin A1c (HbA1c) ([2]; single i.v. dose 1.5 mg/kg, Week 4, T2DM subjects on stable metformin, versus placebo, 1.5 mg/kg): statistically significant decreased; also recorded: Significant reduction
- reduction in HbA1c ([2]; single i.v. dose 10 mg/kg, Week 4 to Week 12, p=0.032): −0.32%
- OGTT glucagon AUC0-4 h [3]: Positive trends consistent with dose escalation; also recorded: positive trend at Week 4 post-dose, albeit not statistically significant
